# Assay results reported in publication doi:10.1101/2024.06.26.600780 (bioRxiv, 2024).
# Molecular target: Green Fluorescent Protein (GFP), biotinylated (biotin (EZ-Link NHS-PEG4-Biotin))
# Test: BLI
row,binding result,Binder
1,binds,Nb395 (VHH) VHH: QVQLVESGGGLVQTGDSLRLSCAASLRTFKSYAMGWFRQAPGKEREAVATISAEGDSTYYDDSVKGRFTISRDNAANTVYLQMNSLKPEDTAVYYCAASRFPYGLRLLQRRESDYWGQGTQVTVSS
2,binds,Nb394 (VHH) VHH: QVQLVESGGGLVQAGGSLRLSCAASGRTFSVSNMGWFRQAPGKERVFVAAIGWTTGSTYYADSVKGRFTISRDNTKNTVYLQMNSLKPEDTAVYRCAARRRGYSRVPMTPDEYEYWGQGTQVTVSS
3,binds,Nb207 (VHH) VHH: QVQLVESGGGLVQAGGSLRLSCAASGRTFSTAAMGWFRQAPGKERDFVAGIYWTVGSTYYADSAKGRFTISRDNAKNTVYLQMDSLKPEDTAVYYCAARRRGFTLAPTRANEYDYWGQGTQVTVSS
